Where no end group is shown, it is not given here.
B1: IL-3 zipperkine (IL-3 cytokine with C-terminal FLAG-tag and RR12EE345L leucine zipper) (ligand)
chain: ASISGRDTHRLTRTLNCSSIVKEIIGKLPEPELKTDDEGPSLRNKSFRRVNLSKFVESQGEVDPEDRYVIKSNLQKLNCCLPTSANDSALPGVFIRDLDDFRKKLRFYMVHLNDLETVLTSRPPQPASGSVSPNRGTVECGSGDYKDDDDKLEIRAAFLRQRNTALRTEVAELEQEVQRLENEVSQYETRYGPLGGGK
B2: RR12EE345L leucine zipper with a linked affinity tag (peptide, not shown: small tags and cut ends)
chain: LEIRAAFLRQRNTALRTEVAELEQEVQRLENEVSQYETRYGPLGGGK
modifications: not fully specified (N-terminus)
notes: Secreted tagged zipper of the two-vector sorting system

How the values were obtained:
[1] = molecular target: T1, leucine zipper-based CAR (ZipR-CAR), e.g. EE12RR345L:CD28zeta; test: co-expression in T cells (FIG. 8)
T1 construct: Used where the text speaks of 'the ZipR-CAR' without naming the spacer; Expressed on T cells; also called leucine zipper receptor-based CAR; EE-CAR

[2] = molecular target: T2, membrane-bound leucine zipper (EE12RR345L); test: both co-transduced into the same cell; affinity tag detected on the cell surface by flow cytometry
T2 construct: Expressed on the surface of the transduced cell; not shown: spacer, transmembrane and any intracellular part of the construct of this experiment are not specified

Binder	binding result [1]	binding result [2]
B1	binds	–
B2	–	binds

— US20210171601A1 (Memorial Sloan Kettering, published 2021)
